Measured values: patent US20230035659A1, “Compositions and Methods for TTR Gene Editing and Treating ATTR Amyloidosis Comprising a Corticosteroid or Use Thereof” (Intellia Therapeutics, Inc., priority 2019, published 2023)
Strand notation (5' to 3'): a small letter for the sugar, then the base; units joined by * are phosphorothioate-linked, units joined directly phosphodiester-linked; [ ] holds rarer units or linkages, { } end groups; capitals alone tell only the bases. m = 2'-O-methyl; r = 2'-OH (RNA)

Key:
TTR [1] = assay: TTR editing dose response (EC50, maximum editing) in primary cyno hepatocytes treated with LNP formulated U-depleted Spy Cas9 mRNA and sgRNAs; type: cell-based, cynomolgus monkey
Method: (§1) Primary liver hepatocytes. Primary human liver hepatocytes (PHH) and primary cynomolgus liver hepatocytes (PCH) (Gibco) were cultured per the manufacturer's protocol (Invitrogen, protocol 11.28.2012). In brief, the cells were thawed and resuspended in hepatocyte thawing medium with supplements (Gibco, Cat. CM7000) followed by centrifugation at 100 g for 10 minutes for human and 80 g for 4 minutes for cyno. The supernatant was discarded and the pelleted cells resuspended in hepatocyte plating medium plus supplement pack (Invitrogen, Cat. A1217601 and CM3000). Cells were counted and plated on Bio-coat collagen I coated 96-well plates (ThermoFisher, Cat. 877272) at a density of 33,000 cells/well for human or 60,000 cells/well for cyno (or 65,000 cells/well when assaying effects on TTR protein, described further below). Plated cells were allowed to settle and adhere for 6 or 24 hours in a tissue culture incubator at 37° C. and 5% CO2 atmosphere. After incubation cells were checked for monolayer formation and media was replaced with hepatocyte culture medium with serum-free supplement pack (Invitrogen, Cat. A1217601 and CM4000).
For LNPs prepared using the cross-flow technique, the LNPs were formed by impinging jet mixing of the lipid in ethanol with two volumes of RNA solutions and one volume of water. The lipid in ethanol is mixed through a mixing cross with the two volumes of RNA solution. A fourth stream of water is mixed with the outlet stream of the cross through an inline tee. (See WO2016010840 FIG. 2.) The LNPs were held for 1 hour at room temperature, and further diluted with water (approximately 1:1 v/v). Diluted LNPs were concentrated using tangential flow filtration on a flat sheet cartridge (Sartorius, 100 kD MWCO) and then buffer exchanged by diafiltration into 50 mM Tris, 45 mM NaCl, 5% (w/v) sucrose, pH 7.5 (TSS). Alternatively, the final buffer exchange into TSS was completed with PD-10 desalting columns (GE). If required, formulations were concentrated by centrifugation with Amicon 100 kDa centrifugal filters (Millipore). The resulting mixture was then filtered using a 0.2 μm sterile filter. The final LNP was stored at 4° C. or −80° C. until further use.
(§2) Additional PCR was performed per the manufacturer's protocols (Illumina) to add chemistry for sequencing. The amplicons were sequenced on an Illumina MiSeq instrument. The reads were aligned to a reference genome (e.g., the human reference genome (hg38), the cynomologus reference genome (mf5), the rat reference genome (rn6), or the mouse reference genome (mm10)) after eliminating those having low quality scores. The resulting files containing the reads were mapped to the reference genome (BAM files), where reads that overlapped the target region of interest were selected and the number of wild type reads versus the number of reads which contain an insertion, substitution, or deletion was calculated.
(§3) The editing percentage (e.g., the “editing efficiency” or “percent editing” or “indel frequency”) is defined as the total number of sequence reads with insertions/deletions (“indels”) or substitutions over the total number of sequence reads, including wild type.
Lipid nanoparticle formulations of modified sgRNAs targeting human TTR and the cyno matched sgRNA sequences were tested on primary human hepatocytes and primary cyno hepatocytes in a dose response curve. Primary human and cyno hepatocytes were plated as described in Example 1. Both cell lines were incubated at 37° C., 5% CO2 for 24 hours prior to treatment with LNPs. The LNPs used in the experiments detailed in Tables 20-22 were prepared using the cross-flow procedure described above but purified using PD-10 columns (GE Healthcare Life Sciences) and concentrated using Amicon centrifugal filter units (Millipore Sigma), each containing the specified sgRNA and Cas9 mRNA (SEQ ID NO:1). […] LNPs were incubated in hepatocyte maintenance media containing 6% cyno serum at 37° C., 5% CO2 for 5 minutes. […]

[2] = test system: potential off-target genomic sites; assay: Off-target analysis by oligo insertion based assay in primary human hepatocytes (sgRNAs); type: cell-based; details: 100 ng Cas9 mRNA, 25 nM sgRNA, 12.5 nM donor oligo, 48 h
Method: Off-target analysis of sgRNAs targeting TTR was performed in primary human hepatocytes (PHH) as described in Example 5, with the following modifications. PHH were plated at a density of 33,000 cells per well on collagen-coated 96-well plates as described in Example 1. Twenty-four hours post plating, cells were washed with media and transfected using Lipofectamine RNAiMAX (ThermoFisher, Cat. 13778150) as described in Example 1. Cells were transfected with a lipoplex containing 100 ng Cas9 mRNA, immediately followed by the addition of another lipoplex containing 25 nM of the sgRNA and 12.5 nM of the donor oligo (0.3 μL/well). Cells were lysed 48 hours post-transfection and gDNA was extracted and analyzed as further described in Example 5. The data is graphically represented in FIG. 20.
Fewer sites were detected in PHH for every guide tested as compared to the HekCas9 cell line, with no unique sites detected in PHH alone.

TTR [3] = assay: TTR editing in primary human hepatocytes treated with LNP formulated Spy Cas9 mRNA (SEQ ID NO: 2) and sgRNAs, 12.5 ng mRNA; type: cell-based; details: LNP formulated Spy Cas9 mRNA (SEQ ID NO: 2) and sgRNA, 12.5 ng mRNA, 3.9 nM sgRNA, 72 hours
Method: as §1
In general, the lipid nanoparticle components were dissolved in 100% ethanol with the lipid component of various molar ratios. The RNA cargos were dissolved in 25 mM citrate, 100 mM NaCl, pH 5.0, resulting in a concentration of RNA cargo of approximately 0.45 mg/mL. The LNPs were formulated with a lipid amine to RNA phosphate (N:P) molar ratio of about 4.5 or about 6, with the ratio of mRNA to gRNA at 1:1 by weight.
The LNPs were formed by microfluidic mixing of the lipid and RNA solutions using a Precision Nanosystems NanoAssemblr™ Benchtop Instrument, according to the manufacturer's protocol. A 2:1 ratio of aqueous to organic solvent was maintained during mixing using differential flow rates. After mixing, the LNPs were collected, diluted in water (approximately 1:1 v/v), held for 1 hour at room temperature, and further diluted with water (approximately 1:1 v/v) before final buffer exchange. The final buffer exchange into 50 mM Tris, 45 mM NaCl, 5% (w/v) sucrose, pH 7.5 (TSS) was completed with PD-10 desalting columns (GE). If required, formulations were concentrated by centrifugation with Amicon 100 kDa centrifugal filters (Millipore). The resulting mixture was then filtered using a 0.2 μm sterile filter. The final LNP was stored at −80° C. until further use.
as §2, §3
Lipid nanoparticle formulations of modified sgRNAs targeting human TTR and the cyno matched sgRNA sequences were tested on primary human hepatocytes and primary cyno hepatocytes in a dose response curve. Primary human and cyno hepatocytes were plated as described in Example 1. Both cell lines were incubated at 37° C., 5% CO2 for 24 hours prior to treatment with LNPs. The LNPs used in the experiments detailed in Tables 18-21 were prepared using the Nanoassemblr™ procedure, each containing the specified sgRNA and Cas9 mRNA (SEQ ID NO:2), each having Lipid. […]

[4] = LNP formulated U-depleted Spy Cas9 mRNA and human specific sgRNAs

| Molecule | Max Editing (TTR [1]; LNP formulated U-depleted Spy Cas9 mRNA and cyno specific sgRNAs) [%] | # Sites in PHH (off-target integration sites detected) [2] | Max Editing (TTR [1]; [4]) [%] | 12.5 ng mRNA, 3.9 nM sgRNA, Avg % Edit (TTR [3]) [%] |
| --- | --- | --- | --- | --- |
| G000502: TTR Cyno specific sgRNA modified sequence, SEQ ID NO: 114; guide sequence of CR000689; cross homologous between mouse and cyno (nucleic acid) guide: mA*mC*mA*rCrArArArUrArCrCrArGrUrCrCrArGrCrGrGrUrUrUrUrArGrAmGmCmUmAmGmAmAmAmUmAmGmCrArArGrUrUrArArArArUrArArGrGrCrUrArGrUrCrCrGrUrUrArUrCrAmAmCmUmUmGmAmAmAmAmAmGmUmGmGmCmAmCmCmGmAmGmUmCmGmGmUmGmCmU*mU*mU*mU | 100.05 | – | – | – |
| G000494: TTR sgRNA modified sequence, Human, SEQ ID NO: 101; guide sequence of CR003360 (nucleic acid) guide: mG*mU*mG*rArGrUrCrUrGrGrArGrArGrCrUrGrCrArUrGrUrUrUrUrArGrAmGmCmUmAmGmAmAmAmUmAmGmCrArArGrUrUrArArArArUrArArGrGrCrUrArGrUrCrCrGrUrUrArUrCrAmAmCmUmUmGmAmAmAmAmAmGmUmGmGmCmAmCmCmGmAmGmUmCmGmGmUmGmCmU*mU*mU*mU | – | 0 | 60.84 | 6.37 |
| G000482: TTR sgRNA modified sequence, Human, SEQ ID NO: 89; guide sequence of CR003365 (nucleic acid) guide: mU*mG*mU*rArGrArArGrGrGrArUrArUrArCrArArArGrGrUrUrUrUrArGrAmGmCmUmAmGmAmAmAmUmAmGmCrArArGrUrUrArArArArUrArArGrGrCrUrArGrUrCrCrGrUrUrArUrCrAmAmCmUmUmGmAmAmAmAmAmGmUmGmGmCmAmCmCmGmAmGmUmCmGmGmUmGmCmU*mU*mU*mU | – | 2 | 97.47 | 19.10 |
| G000488: TTR sgRNA modified sequence, Human, SEQ ID NO: 95; guide sequence of CR003346 (nucleic acid) guide: mA*mA*mA*rGrUrUrCrUrArGrArUrGrCrUrGrUrCrCrGrGrUrUrUrUrArGrAmGmCmUmAmGmAmAmAmUmAmGmCrArArGrUrUrArArArArUrArArGrGrCrUrArGrUrCrCrGrUrUrArUrCrAmAmCmUmUmGmAmAmAmAmAmGmUmGmGmCmAmCmCmGmAmGmUmCmGmGmUmGmCmU*mU*mU*mU | – | 0 | 21.63 | 44.80 |
| G000483: TTR sgRNA modified sequence, Human, SEQ ID NO: 90; guide sequence of CR005298 (nucleic acid) guide: mU*mC*mC*rArCrUrCrArUrUrCrUrUrGrGrCrArGrGrArGrUrUrUrUrArGrAmGmCmUmAmGmAmAmAmUmAmGmCrArArGrUrUrArArArArUrArArGrGrCrUrArGrUrCrCrGrUrUrArUrCrAmAmCmUmUmGmAmAmAmAmAmGmUmGmGmCmAmCmCmGmAmGmUmCmGmGmUmGmCmU*mU*mU*mU | – | 0 | 56.52 | 7.37 |
